Assay results published in paper PMC4394230.

Tests used:
[1] = target: DR4-Ig (death receptor 4 / TRAIL-R1, Ig fusion protein) (UniProt O00220)
[2] = target: DR4-Ig (death receptor 4 / TRAIL-R1, Ig fusion protein) (UniProt O00220); remark: listed apart in the source
[3] = target: rhTRAIL-C3 (TRAIL G131R/N199R/K201H mutant) (human) (UniProt P50591); assay: SEC

Sequence of UniProt O00220 (O00220 24-239): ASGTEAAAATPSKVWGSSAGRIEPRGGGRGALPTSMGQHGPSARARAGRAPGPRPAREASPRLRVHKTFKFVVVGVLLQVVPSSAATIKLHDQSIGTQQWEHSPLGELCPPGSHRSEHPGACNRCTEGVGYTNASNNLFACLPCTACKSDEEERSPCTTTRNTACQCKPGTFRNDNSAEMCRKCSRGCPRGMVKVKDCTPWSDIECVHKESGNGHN

stoichiometry N [3]: 3
Substance: rhTRAIL-C3 (TRAIL G131R/N199R/K201H mutant) (from UniProt P50591 1-281) (ligand)
ED50 of apoptosis induction (annexin V) in DR4-responsive EM-2 cells, 24 hrs [1]: 3.78 ng/mL
level of cell death in HL-60 cells (100 ng/ml, TMRE, 12 hrs) [2]: 67%
